Target: Sulfolobus solfataricus poly(ADP-ribose) polymerase-like thermoprotein (PARPSso) (S. solfataricus)
Assay: SDS-PAGE band shift with silver staining; PARPSso (3 ug, 65 pmol) mixed with Sso7 at 1:0.5, 1:1 and 1:3 mol/mol in 10 mM Na-phosphate/10 mM EDTA pH 7.5, 80 °C for 20 min (once at 45 °C); 5-12% gradient SDS-PAGE

Sulfolobus solfataricus poly(ADP-ribose) polymerase-like thermoprotein (PARPSso) (S. solfataricus), sequence (B3EWG9 whole entry): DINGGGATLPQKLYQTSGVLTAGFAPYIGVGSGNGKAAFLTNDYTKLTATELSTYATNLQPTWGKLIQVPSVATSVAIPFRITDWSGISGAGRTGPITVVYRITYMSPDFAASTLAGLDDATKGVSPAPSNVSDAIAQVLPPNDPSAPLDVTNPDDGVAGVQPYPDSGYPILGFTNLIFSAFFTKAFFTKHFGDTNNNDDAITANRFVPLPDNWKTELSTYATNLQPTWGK

In the case of “Sso7 protein (from UniProt P39476 1-64) (natural protein)”, the stoichiometry N is reported as 3.

Reference: article PMC7599888
